Data taken from US20190374506.

Biological target: Flag-PTEN

B1: Neural Precursor Cell Expressed Developmentally Down-Regulated Protein 4 polypeptide (NEDD4-1) (protein)
chain: MATCAVEVFGLLEDEENSRIVRVRVIAGIGLAKKDILGASDPYVRVTLYDPMNGVLTSVQTKTIKKSLNPKWNEEILFRVHPQQHRLLFEVFDENRLTRDDFLGQVDVPLYPLPTENPRLERPYTFKDFVLHPRSHKSRVKGYLRLKMTYLPKTSGSEDDNAEQAEELEPGWVVLDQPDAACHLQQQQEPSPLPPGWEERQDILGRTYYVNHESRRTQWKRPTPQDNLTDAENGNIQLQAQRAFTTRRQISEETESVDNRESSENWEIIREDEATMYSNQAFPSPPPSSNLDVPTHLAEELNARLTIFGNSAVSQPASSSNHSSRRGSLQAYTFEEQPTLPVLLPTSSGLPPGWEEKQDERGRSYYVDHNSRTTTWTKPTVQATVETSQLTSSQSSAGPQSQASTSDSGQQVTQPSEIEQGFLPKGWEVRHAPNGRPFFIDHNTKTTTWEDPRLKIPAHLRGKTSLDTSNDLGPLPPGWEERTHTDGRIFYINHNIKRTQWEDPRLENVAITGPAVPYSRDYKRKYEFFRRKLKKQNDIPNKFEMKLRRATVLEDSYRRIMGVKRADFLKARLWIEFDGEKGLDYGGVAREWFFLISKEMFNPYYGLFEYSATDNYTLQINPNSGLCNEDHLSYFKFIGRVAGMAVYHGKLLDGFFIRPFYKMMLHKPITLHDMESVDSEYYNSLRWILENDPTELDLRFIIDEELFGQTHQHELKNGGSEIVVTNKNKKEYIYLVIQWRFVNRIQKQMAAFKEGFFELIPQDLIKIFDENELELLMCGLGDVDVNDWREHTKYKNGYSANHQVIQWFWKAVLMMDSEKRIRLLQFVTGTSRVPMNGFAELYGSNGPQSFTVEQWGTPEKLPRAHTCFNRLDLPPYESFEELWDKLQMAIENTQGFDGVD
- in vitro ubiquitination of Flag-PTEN (E1, E2, ubiquitin; western blot with anti-PTEN antibody), NEDD4-1 alone: incubation of purified NEDD4-1 alone could not efficiently promote PTEN K27-linked poly-ubiquitination
- in vitro ubiquitination of Flag-PTEN, WWP1 and NEDD4-1 both present: in the presence of both WWP1 and NEDD4-1, PTEN was robustly K27-linked poly-ubiquitinated
